Experiments:
[1] = target: T1, YggS (E. coli PLP-BP), wild type (Escherichia coli) (UniProt P67080); test: EMSA; conditions: REMSA with fixed RNA: 10 mM HEPES pH 7.3, 10 mM KCl, 1 mM MgCl2, 1 mM DTT, 5% glycerol, RT 30 min; 5% native PAGE, 0.5x TBE (fixed-protein REMSA: 20 mM HEPES …)
T1 sequence: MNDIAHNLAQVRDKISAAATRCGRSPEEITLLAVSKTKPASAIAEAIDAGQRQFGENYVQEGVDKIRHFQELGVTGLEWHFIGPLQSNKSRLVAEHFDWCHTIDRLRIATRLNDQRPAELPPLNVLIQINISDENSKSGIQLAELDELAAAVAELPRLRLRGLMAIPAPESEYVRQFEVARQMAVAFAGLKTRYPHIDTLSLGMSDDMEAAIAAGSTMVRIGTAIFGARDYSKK

[2] = tested on: YggS (E. coli PLP-BP), wild type (Escherichia coli); test: EMSA; conditions: apo-form (no PLP); REMSA with fixed RNA: 10 mM HEPES pH 7.3, 10 mM KCl, 1 mM MgCl2, 1 mM DTT, 5% glycerol, RT 30 min; 5% native PAGE, 0.5x TBE (fixed-protein REMSA: 20 mM HEPES …)

## GGGUCGCGUGGAAGCCCUGCCUGGGGUUGAAGCGUUAAAACUUAAUCAGGCUAGUUUGUUAGUGGCGUGUCCGUCCGCAGCUGGCAAGCGAAUGUAAAGACUGACUAAGCAUGUAGUACCGAGG [SsrA RNA fragment (198-318)]
[1]
  Kd: 2.8 µM

## GGGUGGUAACAGUCCGUGGCACGGUAAACUCCACCCGGAGCAAGGCCAAAUAGGGGUUCAUAAGGUACGGCCCGUACUGAACCCGGGUAGGCUGCUUGAGCCAGUGAGCGAUUGCUGGCCUAGAUGAAUGACUGUCCACGACAGAACCCGG [RnpB RNA fragment (210-357)]
[1]
  Kd: 3.4 µM

## RnpB RNA fragment (210-357)
[2]
  Kd: 3.4 µM

## SsrA RNA fragment (198-318)
[2]
  Kd: 2.8 µM

From PMC11602438
